Data set [1] deals with the molecule itself. Briefly: number and brightness analysis with TIRF microscopy.
Data set [2] deals with the molecule itself. Briefly: number and brightness analysis with TIRF microscopy; live TZM-bl cells expressing Dynamin-mCherry, exposed to HIV(JRFL) at MOI 10; 100 frames at 50 ms per frame; brightness calibrated against mCherry alone.

Where “and” joins values, the source holds several entries; their conditions need not be identical. Equal entries are not always repeated.

For orientation: stoichiometry N means a count of units in the complex or per binding partner.

B1: dynamin-2 (natural protein, UniProt P50570 1-870, looked up)
chain: MGNRGMEELIPLVNKLQDAFSSIGQSCHLDLPQIAVVGGQSAGKSSVLENFVGRDFLPRGSGIVTRRPLILQLIFSKTEHAEFLHCKSKKFTDFDEVRQEIEAETDRVTGTNKGISPVPINLRVYSPHVLNLTLIDLPGITKVPVGDQPPDIEYQIKDMILQFISRESSLILAVTPANMDLANSDALKLAKEVDPQGLRTIGVITKLDLMDEGTDARDVLENKLLPLRRGYIGVVNRSQKDIEGKKDIRAALAAERKFFLSHPAYRHMADRMGTPHLQKTLNQQLTNHIRESLPALRSKLQSQLLSLEKEVEEYKNFRPDDPTRKTKALLQMVQQFGVDFEKRIEGSGDQVDTLELSGGARINRIFHERFPFELVKMEFDEKDLRREISYAIKNIHGVRTGLFTPDLAFEAIVKKQVVKLKEPCLKCVDLVIQELINTVRQCTSKLSSYPRLREETERIVTTYIREREGRTKDQILLLIDIEQSYINTNHEDFIGFANAQQRSTQLNKKRAIPNQGEILVIRRGWLTINNISLMKGGSKEYWFVLTAESLSWYKDEEEKEKKYMLPLDNLKIRDVEKGFMSNKHVFAIFNTEQRNVYKDLRQIELACDSQEDVDSWKASFLRAGVYPEKDQAENEDGAQENTFSMDPQLERQVETIRNLVDSYVAIINKSIRDLMPKTIMHLMINNTKAFIHHELLAYLYSSADQSSLMEESADQAQRRDDMLRMYHALKEALNIIGDISTSTVSTPVPPPVDDTWLQSASSHSPTPQRRPVSSIHPPGRPPAVRGPTPGPPLIPVPVGAAASFSAPPIPSRPGPQSVFANSDLFPAPPQIPSRPVRIPPGIPPGVPSRRPPAAPSRPTIIRPAEPSLLD
notes: dynamin-2 (DNM2), large GTPase; Each copy carries ONE fluorescent protein; FRET-FLIM used an EGFP-tagged copy together with an mCherry-tagged copy; number and brightness used the mCherry-tagged copy alone; The Addgene dynamin-2 plasmids may encode the rat protein (surmise); also called DNM2; Dyn-GFP; source: TZM-bl cells, transfected (plasmids obtained from Addgene), in live cells
Take B1: the “stoichiometry N” value is 8 and 6 in data set [1]; 4 in data set [2].

The values are drawn from PMC5263234, “Dynamin-2 Stabilizes the HIV-1 Fusion Pore with a Low Oligomeric State” (Cell Reports, 2017).
